Data set [1] deals with Fab16 (anti-FNIII, YSGR Min clone 16) (synthetic). Nature of the data set: filter. To be noted: filter binding / dot blot assay.
Data set [2] relates to Fab11 (anti-P4-P6, YSGR Min clone 11) (synthetic). Nature of the data set: filter. To be noted: filter binding / dot blot assay.
For data set [3], the system named is Fab8 (anti-P4-P6, YSGR Min clone 8) (synthetic). In words: FP. To be noted: filter binding / dot blot assay.
Data set [4] relates to Fab30 (anti-VCIII, YSGR Min clone 30) (synthetic). Nature of the data set: filter. To be noted: filter binding / dot blot assay; Example 2 names the V. cholerae target VCLD1.
The subject of data set [5] is Fab29 (anti-VCIII, YSGR Min clone 29) (synthetic). In words: filter. To be noted: filter binding / dot blot assay; Example 2 names the V. cholerae target VCLD1.
Data set [6] deals with T1, Fab7 (anti-tRNAiMet) (synthetic).
T1 sequence: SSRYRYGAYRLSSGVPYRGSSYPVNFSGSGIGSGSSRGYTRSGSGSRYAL
In words: filter. Particulars: soluble Fab; discrete complex also in native gel.

For data set [7], the system named is Fab1 (anti-tRNAiMet, YSGRX clone 1), phage displayed (synthetic). In words: competition. To be noted: competitive phage ELISA; selection RNA carried a 29 nt 3' tag. A general note: ELISA stands for enzyme-linked immunosorbent assay.

Our source for the Kd values is patent US20140288277.

The Kd is the concentration at which binding is half-saturated. A high value points to a looser complex.

FNIII glycine riboswitch registered a dissociation constant (Kd) in data set [1] of 160 nM. For the substance “P4-P6 domain of Tetrahymena group I intron”, the Kd in data set [2] amounted to 20 nM; in data set [3], 53 nM. For VCIII glycine riboswitch, the Kd in data set [4] was 22 nM; in data set [5], 38 nM. For human initiator tRNAiMet transcript, the values for the Kd in data set [6] and in data set [7] were 59 nM and 53 nM, respectively.
